From patent US5747660A, “Nucleic acid encoding prostaglandin F2α receptor regulatory protein” (priority 1995, dated 1998)
Values joined by “and” are separate entries in the source; they are usually repeats but may differ in a detail not shown here. Identical values can stand only once. Like-named read-outs stand apart in the source and are kept apart here. One block for each molecule: values may come before it.

Legend:
[1] = target: prostaglandin F2α receptor (FP)
[2] = target: prostaglandin F2α receptor (FP); settings: literature value; read-out: [^3 H]PGF2α binding affinity reported by Ito et al. (1994); cited from earlier work
[3] = test system: prostaglandin F2α receptor (FP); assay: Effect of intracellular messenger altering agents on [3H]PGF2α binding and on FPRP inhibition of it; assay type: cell-based
Protocol: In a third experiment, transfected cells were treated for 30 min with exposure to the following: phorbol 12-myristate 13-acetate 10^-8 M, prostaglandin E1, 10^-7 M, A23187 10^-6 M, okadaic acid 10^-6 M, or 8-Br-cAMP 10^-5 M (Table 4).
The effect of brefeldin A (3 μg/ml, 2 hr), chloroquine (100 μM, 6 hr) and tunicamysin (2.5 μg/ml, 20 hr) was determined.

[4] = test system: prostaglandin F2α receptor (FP); remark: listed apart in the source
Protocol: Cells transfected with either FP and pSG5 or FP and FPRP were plated in normal media containing serum and at either 21 h, 6 h or 0 h prior to [^3 H]PGF2α binding analysis had their media replaced with serum deficient medium, in order to obviate any effects due to hormones or factors present in the added serum.

[5] = test system: prostaglandin F2α receptor (FP); assay: [3H]PGF2α specific binding to COS cells cotransfected with FP cDNA and a test cDNA construct; assay type: cell-based, rat, mouse
[6] = test system: prostaglandin F2α receptor (FP); assay: Cotransfection of a third construct along with FP and FPRP, [3H]PGF2α binding; assay type: cell-based; settings: FP + FPRP, no third construct; FP + pSG5 = 100
From the text: Therefore, a strategy based on cotransfection of a third construct (along with FP and FPRP) was pursued. These third party constructs included ones coding for the protease inhibitors alpha-l trypsin inhibitor and crmA, an inhibitor of cell death, bcl2, and few nonspecific control molecules including the vitamin D receptor, a secreted immunoglobulin molecule, and the empty parent vector pSG5 only. All groups and treatments were compared with control treatment of FP+pSG5 vs. FP+FPRP.

[7] = test system: COS cells (endogenous specific [3H]PGF2α binding); assay: [3H]PGF2α binding to COS cell cultures transfected with FPRP cDNA construct alone; assay type: cell-based; settings: COS cells transfected with FPRP cDNA construct only, 24 h
Protocol: COS cells were electroporated, cultured for 24 h and analyzed for specific [^3 H]PGF2α binding. Total transfected DNA is indicated on the abscissa. Data points represent mean±standard deviation, n=3.
Methods. COS-1 cells were used for transient expression experiments. Briefly, 70-80% confluent cultures (grown in Ham's F-12 media plus 8% fetal bovine serum, with media replacement 24 hours prior to transfection)were harvested with a trypsin/EDTA solution (final concentration: 0.02% ethylenediaminetetracetic acid, 0.05% sodium bicarbonate, and 0.5% Enzart 40x trypsin), washed twice with culture media, then resuspended in ice cold culture media at approximately 1.66×10^7 cells per ml. Aliquots of 0.15 ml (2.5×10^6 cells) were placed in electroporation cuvettes (BioRad, Hercules, Calif.) along with plasmid DNA, placed on ice for 10 minutes, electroporated with a Bio Rad electroporater (settings: 250 μF, […], .infin..OMEGA., 0.4 cm cuvette), 1 ml of ice cold culture media was added and the cells were left on ice for 10 minutes before plating.
The binding incubation was at 37° for 20 minutes.

[8] = test system: prostaglandin F2α receptor (FP); remark: listed apart in the source
Protocol: Models for FPRP interaction with FP were tested as follows. First, a conditioned media experiment was performed with either the pSGS vector, or the FPRP cDNA construct transfected into COS cells. Following plating and culture of these transfected cells for 24 hours the media in which the cells were grown was placed on cultures of cells transfected with FP. The cells transfected with FP and cultured with the conditioned medium for 4 hours were then analyzed for [^3 H]PGF2α binding. In a second experiment, FPRP or pSG5 were transfected as described above into one set of cells, FP alone into a second set of cells, and the cells co-cultured in the ratios shown in Table 3.
Briefly, COS cells were transfected with FP, pSG5, or FPRP, and plated. 24 h post transfection, media was removed from the pSG5 and FPRP transfected cultures, centrifuged 7 min at 1000×g, and added back to the FP culture media at the indicated ratios. Following 4 h of this media treatment, [^3 H]PGF2α binding was analyzed. As a control, FP and FPRP were cotransfected. For co-cultured cells, COS cells were transfected with FP, pSG5, or FPRP, mixed at a 1:1 ratio and cultured. As a control, cells were either transfected with FP or FP+FPRP.

[9] = target: prostaglandin F2α receptor (FP), cDNA construct whose species the place does not tell
[10] = test system: prostaglandin F2α receptor (FP); assay: [3H]PGF2α binding in COS cells co-transfected with FP and an FPRP variant construct; settings: 3.5 μg FP cDNA construct and 5 μg test cDNA construct
[11] = target: prostaglandin F2α receptor (FP), cDNA construct whose species the place does not tell; remark: listed apart in the source
[12] = control treatment (EtOH vehicle or Control), no agent

- Kd ([1]; read-out: [^3 H]PGF2α binding affinity, FP + pSG5, asFPRP, FPRP or dssFPRP: all 4 treatments similar): 8 nM
- effect of agent on basal [^3 H]PGF2α binding ([3]; FP transfected cells pretreated with the agent): decreased subsequent basal FP binding
Molecule: CCCCC[C@H](O)/C=C/[C@@H]1[C@@H](C/C=C\CCCC(=O)O)[C@@H](O)C[C@H]1O [PGF2α, Prostaglandin F2α]
- Kd [2]: 25 nM
- % Control [^3 H]PGF2α Binding, FP + FPRP ([3]; FP + FPRP transfected cells treated with the agent): 40 ± 3%
- % Control [^3 H]PGF2α Binding, FP + pSG5 ([3]; FP + pSG5 transfected cells treated with the agent): 73 ± 9%
- % Inhibition (FPRP inhibition of [^3 H]PGF2α binding) ([3]; in presence of the agent at the concentration/time given): 45%

- inhibition of [^3 H]PGF2α binding to FP ([1]; saturation binding experiment, FP + FPRP cotransfection): approximately 60%
- type of inhibition of [^3 H]PGF2α binding ([1]; saturation binding, Scatchard analysis): non-competitive inhibitor
- % Control [^3 H]PGF2α Binding ([4]; Serum Removal: t = 1 h): 38 ± 7%
- % Control [^3 H]PGF2α Binding ([4]; Serum Removal: t = -6 h): 48 ± 4%
- % Control [^3 H]PGF2α Binding ([4]; Serum Removal: t = -21 h): 41 ± 3%
- effect of growth in serum deficient media on percent of FPRP inhibition ([4]; serum deficient medium 21 h, 6 h or 0 h prior to binding): did not alter
- % Control [^3 H]PGF2α Binding [6]: 37 ± 5%
- % Control [^3 H]PGF2α Binding, FP + FPRP [3, 12]: 52 ± 3% and 37 ± 3%
- % Inhibition (FPRP inhibition of [^3 H]PGF2α binding) [3, 12]: 48% and 63%
- % Control [^3 H]PGF2α Binding ([8]; FP + FPRP cotransfection pos. control of the conditioned media experiment): 43 ± 5%
- % Control [^3 H]PGF2α Binding ([8]; FP + FPRP cotransfection positive control of the co-culture experiment): 45 ± 3%
- % Control [^3 H]PGF2α Binding ([8]; FP cells + 1:2 media from FPRP transfection, 4 h): 103 ± 10%
- % Control [^3 H]PGF2α Binding ([8]; FP cells + 1:4 media from FPRP transfection, 4 h): 112 ± 10%
- % Control [^3 H]PGF2α Binding ([8]; FP cells + 1:8 media from FPRP transfection, 4 h): 113 ± 11%
- % Control [^3 H]PGF2α Binding ([8]; FP transfected cells co-cultured 1:1 with FPRP transfected cells): 120 ± 10%
- ability to inhibit [^3 H]PGF2α binding to FP ([8]; conditioned media or co-culture type experiments): unable to inhibit
B1: FPRP: rat prostaglandin F2α receptor regulatory protein (SEQ ID NO:1), expressed from FPRP cDNA in pSG5, construct 232 (SEQ ID NO:10) (protein)
chain: MGRPAPRPLLLALLSLAVCRGRVVRVPAGTLVRVVGTELVIPCNVSDYDGPSEQNFDWSFSSSGSSFVELASTWEVGFPAQQYRERLQRGDILLRRTANDAVELHIKNVQPSDQGHYKCSTPSTDATVQGNYEDTMQVKVLADALVVGPSSRPPPGLSLREGEPFELRCIASTTSPLHTHLALRWELHRGPVHRSILALSHEGRFHPGPGYEQRYHSGDVRLDTVGSDAYRLSVARALSADQGSYRCVVSEWITEQGSWQEIQEKAVEVATVVIQPTALQLAVPRTVSVTEGKDLDLSCNITTDRVDDVRPEVTWYFKKTPDTSLLASHMLARLDRDSLVHSSPHVALSHVDTRSYHLLVRDVSKENSGYYLCLVALWAPGHNRSWHKVAEAMSAPSGVSVTWLEPEYQVYLNASKVPGFSDDPTELQCRVIDTKRVDAGVRLTVSWYYRMNRRNDDVVASELLAVMDGDWTLRYGERSKQRAQDGEFIFSKEHTDTFSFRIQRTTEEDRGSYYCVVSAWTRQRNSSWVKSKDVFSKPVNIFWASEDSVLVVKARQPKPFFAAGNTFEMTCKVSSKNIKSPRYSVLITAEKPVGDLSSPNETKYIISLDQDSVVKLENWTDASRVDGVVLEKVQEDEFRYRMYQTQVSDAGLYRCMVTAWSPIGGSLWREAATSLSNPIEIDFQTSGPIFNASVHSDTLSVTRGDLIKLFCIVTVDGAVLDPDDMAFDVSWFAVHSFGLDKAPILLSSLDRKGVVTTGQRDWKSTVSLERVSVLEFLLQVHGSEDQDFGNYYCSVTPWVRSPTGSWQREAEIHSRPIFITVKMDVLNAFKYPLLIGVGLSTVIRLLSCLIGYCSSHWCCKKEVRETRRERRRLMSMEMD
- % CONTROL, [^3 H]PGF2α specific binding ([5]; COS cells cotransfected with FP + the named DNA, FP alone = 100): 30-50%
- inhibitory activity of FPRP on [^3 H]PGF2α binding ([5]; COS cells nearly 100% confluent, media replaced ≈48 h prior to transfection): approximately 60%
- % CONTROL [^3 H]PGF2α BINDING (FPRP inhibitory activity) ([5]; Standard: 80% confluent cells, 40 μg/dish post-electroporation, binding assay at 24 h): 30-50%
- % CONTROL [^3 H]PGF2α BINDING (FPRP inhibitory activity) ([5]; binding buffer of Weipz et al. (1992), pH 6.0): 53 ± 8%
- % CONTROL [^3 H]PGF2α BINDING (FPRP inhibitory activity) ([5]; binding buffer: standard buffer pH 6.0): 41 ± 5%
- % CONTROL [^3 H]PGF2α BINDING (FPRP inhibitory activity) ([5]; binding buffer: standard buffer pH 7.0): 45 ± 3%
- effect on [^3 H]PGF2α binding to FP ([5]; cotransfection with rFP or mFP): inhibited rFP and mFP equally
- % CONTROL [^3 H]PGF2α BINDING (FPRP inhibitory activity) ([5]; density of cells post-electroporation: 40 μg/dish): 40 ± 5%
- % CONTROL [^3 H]PGF2α BINDING (FPRP inhibitory activity) ([5]; density of cells post-electroporation: 20-30 μg/dish): 30 ± 5%
- % CONTROL [^3 H]PGF2α BINDING (FPRP inhibitory activity) ([5]; density of cells post-electroporation: 60-80 μg/dish): 43 ± 4%
- % CONTROL [^3 H]PGF2α BINDING (FPRP inhibitory activity) ([5]; density of cells prior to electroporation: 60-70% confluent): 35 ± 3%
- % CONTROL [^3 H]PGF2α BINDING (FPRP inhibitory activity) ([5]; density of cells prior to electroporation: 80% confluent): 40 ± 5%
- % CONTROL [^3 H]PGF2α BINDING (FPRP inhibitory activity) ([5]; density of cells prior to electroporation: 100% confluent): 38 ± 4%
- % CONTROL [^3 H]PGF2α BINDING (FPRP inhibitory activity) ([5]; time between electroporation and binding: 24 hr): 36 ± 3%
- % CONTROL [^3 H]PGF2α BINDING (FPRP inhibitory activity) ([5]; time between electroporation and binding: 48 hr): 33 ± 3%
- effect of FPRP expression on [^3 H]PGF2α binding [7]: marked, dose dependent decrease
- decrease of viability of the transfected cells (COS cells): 20-60%

- % control ^3 H!PGF2α binding, co-culture of FPRP transfected cells with FP transfected cells 1:1 [9]: 120 % control
- % control ^3 H!PGF2α binding, conditioned media from FPRP transfected cells on FP transfected cells [9]: 103 % control
- inhibition of ^3 H!PGF2α binding, saturation binding experiment [11]: 60%
B2: rat prostaglandin F2α receptor regulatory protein (FPRP) (protein)
chain: RVVRVPAGTLVRVVGTELVIPCNVSDYDGPSEQNFDWSFSSSGSSFVELASTWEVGFPAQQYRERLQRGDILLRRTANDAVELHIKNVQPSDQGHYKCSTPSTDATVQGNYEDTMQVKVLADALVVGPSSRPPPGLSLREGEPFELRCIASTTSPLHTHLALRWELHRGPVHRSILALSHEGRFHPGPGYEQRYHSGDVRLDTVGSDAYRLSVARALSADQGSYRCVVSEWITEQGSWQEIQEKAVEVATVVIQPTALQLAVPRTVSVTEGKDLDLSCNITTDRVDDVRPEVTWYFKKTPDTSLLASHMLARLDRDSLVHSSPHVALSHVDTRSYHLLVRDVSKENSGYYLCLVALWAPGHNRSWHKVAEAMSAPSGVSVTWLEPEYQVYLNASKVPGFSDDPTELQCRVIDTKRVDAGVRLTVSWYYRMNRRNDDVVASELLAVMDGDWTLRYGERSKQRAQDGEFIFSKEHTDTFSFRIQRTTEEDRGSYYCVVSAWTRQRNSSWVKSKDVFSKPVNIFWASEDSVLVVKARQPKPFFAAGNTFEMTCKVSSKNIKSPRYSVLITAEKPVGDLSSPNETKYIISLDQDSVVKLENWTDASRVDGVVLEKVQEDEFRYRMYQTQVSDAGLYRCMVTAWSPIGGSLWREAATSLSNPIEIDFQTSGPIFNASVHSDTLSVTRGDLIKLFCIVTVDGAVLDPDDMAFDVSWFAVHSFGLDKAPILLSSLDRKGVVTTGQRDWKSTVSLERVSVLEFLLQVHGSEDQDFGNYYCSVTPWVRSPTGSWQREAEIHSRPIFITVKMDVLNAFKYPLLIGVGLSTVIRLLSCLIGYCSSHWCCKKEVRETRRERRRLMSMEMD
- inhibitory activity of FPRP variant on [^3 H]PGF2α binding [10]: may be slightly more active at lower concentrations but does not inhibit quite as well as native FPRP (construct 232) at high concentrations
